Data on 3 molecules can be found in patent publication US7951906B2, “Compounds capable of interacting with a cell-surface fibroblast growth factor receptor” (Enkam Pharmaceuticals A/S, priority 2002, dated 2011).

In one test the target is T1, rat FGFR1 (IIIC isoform) (Rattus norvegicus, UniProt Q04589).
T1 construct: expressed in transfected cells; host or cells: HEK293 cells, transient, pcDNA3.1(+)
The test is described as follows: FGFR1 phosphorylation, Assay 2 (HEK293 cells, His-tagged FGFR1). It is filed as cell-based. As to conditions: 20 min, 5 μM F3 module 2, 25 μM monomeric FG loop peptide. The protocol: Assay 2: The cDNA for the rat FGFR1 (IIIC isoform) was cloned by RT-PCR using RNA isolated from the rat PC12 cell line and inserted into a pcDNA3.1(+) plasmid (invitrogen), which allows expression of FGFR1 fused to the N-terminal of hexahistidine. ˜8×10^5 HEK293 cells were cultured for 24 h in 60 mm plates in full medium (DMEM 1965 supplemented with 10% FCS, 100 U/ml penicillin, 100 μg/ml streptomycin and […] Glutamax) and then transfected with 0.2 μg plasmid (with FGFR) using the LipofectAMIN PLUS™ reagent kit according to the manufacturer's instructions (Gibco BRL). Cells were grown for another 24 hrs in full medium, and then shifted to starvation media (DMEM 1965) overnight. FGFR transfected cells were stimulated for 20 min with the specified compounds, lysed in 8M urea, 1 mM orthovanadate (in PBS) and purified from the lysate via the His-tag as follows: The lysate was loaded on Ni^2+/NTA-sepharose (Qiagen), washed with lysis buffer plus 10 mM imidazole, and the FGFR was eluted with lysis buffer plus 250 mM imidazole. The purified FGFR was analysed by immunoblotting using anti-pentahis (Qiagen) or anti-phosphotyrosine (PY20, Transduction Laboratories) antibodies. The bands were visualised by chemilumiscense and the band density was measured using a GeneGnome apparatus (SynGene).

In another test the test system is hippocampal neurons. The test can be described thus: Neurite outgrowth from hippocampal neurons. It is filed as cell-based, rat. As to conditions: for neurite outgrowth in dose-response study: neurite length versus concentration. The protocol:
Dissociated neurons from embryonic rat hippocampus (embryonic day 19), prepared as described (Skladchikova et al., 1999), were grown on Permanox plastic (Nunc) for 24 h at a density of 6000 cells/cm^2, at 37° C., 5% CO2 in Neurobasal medium containing 20 mM Hepes, 100 U/ml penicillin, 100 μg/ml streptomycin, 0.4% BSA supplemented with B27 (Gibco BRL) and the below specified compounds. After 24 h, cells were fixed with paraformaldehyde, stained with Coomassie Brilliant Blue R250 and the length of neurites was measured as described (Skladchikova et al, 1999).

Another test has as its target T2, FGFR1 Ig modules 2, 3 (Mus musculus, UniProt P16092).
T2 construct: amino acids 249-365 and 141-365 of FGFR (swissprot p16092), respectively; made in house; host or cells: Drosophila S2 cells
T2 sequence (P16092 141-365): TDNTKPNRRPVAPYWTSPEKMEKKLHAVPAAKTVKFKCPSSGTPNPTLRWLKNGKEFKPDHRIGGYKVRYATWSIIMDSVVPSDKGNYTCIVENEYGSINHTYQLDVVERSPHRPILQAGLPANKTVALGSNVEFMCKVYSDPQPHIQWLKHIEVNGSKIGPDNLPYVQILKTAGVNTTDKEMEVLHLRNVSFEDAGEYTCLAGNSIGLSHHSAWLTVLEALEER
The test can be described thus: SPR binding to immobilized FGFR Ig modules 2, 3. From the text:
The NCAM F3 modules 1, 2 (without expression of exons a, AAG), and FGFR1 Ig modules 2, 3 were produced using rat NCAM cDNA and mouse FGFR1 (IIIC iso-form) cDNA. The F3 module 1 and the combined F3 modules 1, 2 consist of […] (SEQ ID NO:173) and amino acids 507-611 and 507-705 of NCAM (swissprot p13596), respectively. […] The FGFR Ig module 2 consists of […] […] The FGFR Ig module 3 and the combined Ig modules 2, 3 consist of […] (SEQ ID NO:174) and amino acids 249-365 and 141-365 of FGFR (swissprot p16092), respectively. […] All the proteins were purified by affinity chromatography using Ni2^+−NTA resin (Qiagen, USA) and/or ion exchange chromatography and gel filtration. ^15N-labelled F3 module 2 was produced as described (Thomsen et al., 1996). The NCAM Ig modules 1, 2 and 3 (RV and amino acids 20-308 of rat NCAM, swissprot p13596) was produced as described (Soroka et al., 2002).
The flow-rate was 5 μl/min. […] The FGFR Ig modules 2, 3 were immobilized on a sensor chip CM5 using amine coupling kit (Biosensor AB) as follows: 1) the two halves of the chip (designated Fc1 and Fc2) were activated by 20 μl activation solution; 2) the protein was immobilized on Fc1 using 12 μl 20 μg/ml protein in 10 mM sodium phosphate buffer pH 6.0; 3) Fc1 and Fc2 were blocked by 35 μl blocking solution. […] The resulting curve was used for analysis.

In test [1] the test system is polyclonal antibody raised against the intact FGL-peptide. The test is described as follows: Competitive ELISA of immunoreactivity with antibody raised against FGL-peptide. The class given is binding. As to conditions: rabbit serum. An excerpt:
Antibody specifically recognising an epitope comprising SEQ ID NO: 1 (FGL-peptide) were raised in rabbits according the standard procedure (Gill B M, Barbosa J A, Dinh T Q, Garrod S, O'Connor D T: Chromogranin B: isolation from pheochromocytoma, N-terminal sequence, tissue distribution and secretory vesicle processing. Regul Peptides 33:223-35, 1991). Synthetic FGL-peptide was coupled to a carrier protein, KLH (Keyhole Limpets Hemocyanin). The peptide was mixed with Freunds incomplete adjuvant and the mixture was injected into rabbits. 208 μg peptide was used per immunisation (per rabbit).
Antibodies (serum) were tested for specificity by competitive ELISA using a series FGL-peptide truncated variants according to the protocol described in R. J. Jenny, T. L. Messier, L. A. Ouellette, and W. R. Church, Methods Enzymol. 222, 400 (1993). 100% immunoreactivity was ob-served only with the intact FGL-peptide consisting of SEQ ID NO: 1.

Test [2] addresses interaction between the NCAM F3 modules 1, 2 and the FGFR modules 2, 3 (Rattus norvegicus, UniProt P13596). The test is described as follows: biochemical.
The target in the next test is T3, human FGFR1 (Homo sapiens, UniProt P11362).
T3 construct: expressed in transfected cells; host or cells: TREX-293 cells (Invitrogen), Flp-In system
T3 sequence (P11362 22-822): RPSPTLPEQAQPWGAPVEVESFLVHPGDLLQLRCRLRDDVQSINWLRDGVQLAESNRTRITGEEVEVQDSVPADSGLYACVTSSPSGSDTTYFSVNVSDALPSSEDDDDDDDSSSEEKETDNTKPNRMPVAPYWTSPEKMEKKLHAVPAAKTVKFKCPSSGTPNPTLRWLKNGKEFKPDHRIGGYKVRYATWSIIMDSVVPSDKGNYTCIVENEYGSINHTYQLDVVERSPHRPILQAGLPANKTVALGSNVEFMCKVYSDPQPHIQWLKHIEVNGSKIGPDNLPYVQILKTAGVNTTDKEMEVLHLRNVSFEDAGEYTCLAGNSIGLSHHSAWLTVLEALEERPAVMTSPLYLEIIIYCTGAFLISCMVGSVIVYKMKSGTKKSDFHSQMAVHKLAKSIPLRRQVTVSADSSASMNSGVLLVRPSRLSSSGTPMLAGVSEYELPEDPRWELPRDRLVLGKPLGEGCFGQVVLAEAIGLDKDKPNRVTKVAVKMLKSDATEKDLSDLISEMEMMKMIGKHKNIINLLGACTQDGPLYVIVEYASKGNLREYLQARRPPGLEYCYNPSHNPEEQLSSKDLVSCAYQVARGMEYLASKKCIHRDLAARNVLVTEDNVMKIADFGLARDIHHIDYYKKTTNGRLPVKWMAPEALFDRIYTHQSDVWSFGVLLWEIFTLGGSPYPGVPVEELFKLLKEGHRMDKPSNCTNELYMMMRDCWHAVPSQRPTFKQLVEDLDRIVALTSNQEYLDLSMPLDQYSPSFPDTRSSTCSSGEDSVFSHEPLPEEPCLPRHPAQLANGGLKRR
The test is described as follows: FGFR1 phosphorylation, Assay 1 (TREX-293 cells, StrepII-tagged FGFR1). The class given is cell-based. As to conditions: 20 min, 5 μM F3 module, 2.5 μM dendrimeric FG loop peptide. The protocol: Assay 1: TREX-293 cells (Invitrogen) were stably transfected with human FGFR1 having a C-terminal StrepII-tag (IBA biotech), using the Flp-In system (Invitrogen). For the study of phosphorylation: ˜2×10^7 cells were starved overnight before stimulation for 20 min with the specified compounds. Cells were lysed in PBS with 1% NP-40 and phosphatase inhibitors cocktail set II (Calbiochem). The cleared cell lysates were incubated with 50 μl agarose-coupled anti-phosphotyrosine antibodies (4G10-AC, Upstate Biotechnologies) for 3 hrs at 4° C. Care was taken to calibrate the amount of cells employed, so that considerable increases in phosphorylated FGFR could be detected. The bound protein was washed, eluted using 150 mM phenyl phosphate (Sigma), precipitated by 12% trichloroacetic acid, washed in cold acetone and dissolved in SDS-PAGE sample buffer. Immunoblotting was performed using antibodies against the recombinant StrepII-tag (IBA biotech). For immunoprecipitation: ˜1×10^7 cells were transiently transfected with the 180 kDa NCAM isoform or a control vector. Cells were incubated for 24 h and then starved overnight. After lysis, FGFR was purified on a StrepTactin Minicolumn (IBA Biotech) according to the manufacturer's instructions, and analyzed by immunoblotting with polyclonal antibodies against human NCAM.

For a further test, the target named is T4, FGFR Ig module 2 (Mus musculus, UniProt P16092).
T4 sequence (P16092 140-251): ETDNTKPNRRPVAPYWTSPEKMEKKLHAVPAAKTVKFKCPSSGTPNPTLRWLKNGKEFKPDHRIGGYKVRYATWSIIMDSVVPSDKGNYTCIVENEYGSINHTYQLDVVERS
The test can be described thus: 15N-HSQC NMR chemical shift changes of NCAM F3 module 2 with FGFR Ig module 2. It is filed as binding. As to conditions: 50 μM 15N-labeled F3 module 2, 1 mM FGFR Ig module 2. From the text:
The NCAM F3 modules 1, 2 (without expression of exons a, AAG), and FGFR1 Ig modules 2, 3 were produced using rat NCAM cDNA and mouse FGFR1 (IIIC iso-form) cDNA. The F3 module 1 and the combined F3 modules 1, 2 consist of […] (SEQ ID NO:173) and amino acids 507-611 and 507-705 of NCAM (swissprot p13596), respectively. […] The FGFR Ig module 2 consists of […] […] The FGFR Ig module 3 and the combined Ig modules 2, 3 consist of […] (SEQ ID NO:174) and amino acids 249-365 and 141-365 of FGFR (swissprot p16092), respectively. […]
The following samples were used for the structure determination of the NCAM F3 module 2: 2 mM module in H2O or D2O and 1 mM ^15N-labelled module in H2O. […] The following NMR spectra were recorded and used for assignment: TOCSY in H2O or D2O (45 and 70 ms mixing time), NOESY in H2O or D2O (80 and 200 ms mixing time), DQFCOSY, ^15N-HSQC, ^15N-TOCSY-HSQC (70 ms mixing time), and ^15N-NOESY-HSQC (125 ms mixing time) (Bodenhausen and Ruben, 1980; Braunsweiler and Ernst, 1983; Kumar et al., 1981; Piantini et al., 1982; Zhang et al., 1994). […] All spectra were recorded at 298 K. The assignment of the ^1H and ^15N resonances were performed using the program PRONTO (Kjaer et al., 1994). […]

T1 sequence (Q04589 22-822): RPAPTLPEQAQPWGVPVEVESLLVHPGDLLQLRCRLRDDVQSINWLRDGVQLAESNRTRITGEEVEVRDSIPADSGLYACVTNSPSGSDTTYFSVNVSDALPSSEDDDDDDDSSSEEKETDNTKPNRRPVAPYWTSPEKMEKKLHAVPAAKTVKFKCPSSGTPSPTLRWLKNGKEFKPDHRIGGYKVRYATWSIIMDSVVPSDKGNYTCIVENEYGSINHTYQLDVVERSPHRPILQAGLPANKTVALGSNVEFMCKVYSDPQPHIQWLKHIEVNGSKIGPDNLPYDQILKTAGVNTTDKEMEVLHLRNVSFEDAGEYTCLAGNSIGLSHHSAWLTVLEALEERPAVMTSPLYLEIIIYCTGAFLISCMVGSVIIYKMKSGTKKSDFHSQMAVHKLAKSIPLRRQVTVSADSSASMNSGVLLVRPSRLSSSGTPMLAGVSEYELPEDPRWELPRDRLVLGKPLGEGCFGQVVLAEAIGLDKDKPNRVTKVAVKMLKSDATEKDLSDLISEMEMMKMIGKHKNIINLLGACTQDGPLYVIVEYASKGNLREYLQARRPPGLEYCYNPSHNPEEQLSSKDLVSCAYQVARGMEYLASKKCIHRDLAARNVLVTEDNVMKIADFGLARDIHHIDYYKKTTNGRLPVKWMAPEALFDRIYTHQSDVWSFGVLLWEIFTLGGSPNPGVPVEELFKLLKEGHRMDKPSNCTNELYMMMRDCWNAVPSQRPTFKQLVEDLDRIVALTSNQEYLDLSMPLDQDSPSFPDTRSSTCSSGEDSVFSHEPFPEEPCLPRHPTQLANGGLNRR
Sequence of interaction between the NCAM F3 modules 1, 2 and the FGFR modules 2, 3 (P13596 507-705): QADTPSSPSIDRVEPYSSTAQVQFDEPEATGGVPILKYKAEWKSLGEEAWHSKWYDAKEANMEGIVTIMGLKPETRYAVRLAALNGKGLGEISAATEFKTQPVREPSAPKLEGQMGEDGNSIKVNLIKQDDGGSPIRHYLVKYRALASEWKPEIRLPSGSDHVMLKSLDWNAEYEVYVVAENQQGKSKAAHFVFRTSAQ

For the molecule “FG loop peptide: peptide corresponding to residues E^72-A^86 of the NCAM F3 module 2 (EVYVVAENQQGKSKA; NCAM Fn III, 2 [Swiss-Prot P13591] FGFR binding motif)”, the “increase of FGFR phosphorylation compared to control cells” value with rat FGFR1 (IIIC isoform) is recorded as approximately 100%. Further, the “neurite outgrowth in dose-response study” value in the test on hippocampal neurons (hippocampal neurons) was “induced neurite outgrowth with a bell-shaped curve”. For the same molecule, the “binding to the immobilized FGFR modules” value with FGFR1 Ig modules 2, 3 is “cannot be detected”. The molecule also showed an immunoreactivity in test [1] of 100%.
Turning to `Nc1ncnc2c1ncn2[C@@H]1O[C@H](COP(=O)(O)OP(=O)(O)OP(=O)(O)O)[C@@H](O)[C@H]1O` [ATP, adenosine triphosphate, reference compound], the “inhibition of the neuritogenic effect induced by the F3 module 2” value in the test on hippocampal neurons (5 μM F3 module, ATP or AMP-PCP 0.4, 1.0 mM) was “substantially reduced”. Also, the “inhibition of the neuritogenic effect induced by the FG loop peptide” value in the test on hippocampal neurons (50 μM peptide, ATP or AMP-PCP 0.4, 1.0 mM) is “completely inhibited”. The affinity in test [2] corresponds to a Ki of 370 ± 50 µM.

B1: NCAM F3 module 2: recombinant protein: AG and amino acids 612-705 of rat NCAM (swissprot p13596) (protein)
chain: AGPSAPKLEGQMGEDGNSIKVNLIKQDDGGSPIRHYLVKYRALASEWKPEIRLPSGSDHVMLKSLDWNAEYEVYVVAENQQGKSKAAHFVFRTSAQ
With B1, the “increase of FGFR phosphorylation compared to control cells” value with rat FGFR1 (IIIC isoform) is reported as “approx. 150%”. For the same molecule, the “FGFR phosphorylation compared to the non-stimulated cells” value in the test with human FGFR1 is “substantially increase”. For the same molecule, the “stimulation of neurite outgrowth / length of neurites” value in the test on hippocampal neurons (hippocampal neurons, 24 h, 5 μM F3 module 2) was “substantially increased”. Also, the “neurite outgrowth in dose-response study” value in the test with hippocampal neurons (hippocampal neurons) is listed as “induced neurite outgrowth with a bell-shaped curve”. For the same molecule, the “changes of the chemical shifts in the presence of the Ig module 2” value with FGFR Ig module 2 is “No significant changes”.
